From patent publication US20180037651A1 (Janssen / Centocor, published 2018)

biological target: T1, human GPRC5D (human, UniProt Q9NZD1 1-345); assay: FACS, human GPRC5D cells
T1 construct: on transfected HEK293/RBL cells or endogenous on myeloma cells (H929, MM1R, OPM2, LP1, JIM3, patient plasma cells); also called G protein-coupled receptor class C group 5 member D; hGPRC5D
T1 sequence (Q9NZD1 whole entry): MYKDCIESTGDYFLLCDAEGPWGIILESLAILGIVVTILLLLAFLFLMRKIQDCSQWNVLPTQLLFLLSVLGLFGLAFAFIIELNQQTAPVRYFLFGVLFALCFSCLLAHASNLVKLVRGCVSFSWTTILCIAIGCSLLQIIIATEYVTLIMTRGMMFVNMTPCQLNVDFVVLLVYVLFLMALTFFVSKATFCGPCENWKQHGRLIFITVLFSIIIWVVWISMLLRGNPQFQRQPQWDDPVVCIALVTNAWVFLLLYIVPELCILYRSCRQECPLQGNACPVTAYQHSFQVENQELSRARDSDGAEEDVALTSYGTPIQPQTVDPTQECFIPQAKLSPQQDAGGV

| Binder | MFI [mfi] |
| --- | --- |
| GC5B472 (antibody, V domains shown, GC5B164 PTM variant; also called GC5H277) VH: EVQLVQSGAEVKKPGESLKISCKGSGYSFTSYVIGWVRQMPGKGLEWMGIIYPGASDTRYSPSFQGQVTISADKSISTAYLQWSSLKASDTAMYYCARVYSFGGRHKALFDYWGQGTLVTVSS VL: EIVLTQSPATLSLSPGERATLSCRASQSVSSYLAWYQQKPGQAPRLLIYDASNRATGIPARFSGSGSGTDFTLTISSLEPEDFAVYYCQQRSNWPLTFGQGTKVEIK | 1000 to 10000 |
| GC5B478 (antibody, V domains shown, GC5B164 PTM variant; also called GC5H271) VH: EVQLVQSGAEVKKPGESLKISCKGSGYSFTSYFIGWVRQMPGKGLEWMGIIYPGSSDTRYSPSFQGQVTISADKSISTAYLQWSSLKASDTAMYYCARVYSFGGRHKALFDYWGQGTLVTVSS VL: EIVLTQSPATLSLSPGERATLSCRASQSVSSYLAWYQQKPGQAPRLLIYDASNRATGIPARFSGSGSGTDFTLTISSLEPEDFAVYYCQQRSNWPLTFGQGTKVEIK | > 10000 |
| GC5B480 (antibody, V domains shown, GC5B164 PTM variant; also called GC5H269) VH: EVQLVQSGAEVKKPGESLKISCKGSGYSFTSYAIGWVRQMPGKGLEWMGIIYPGSSDTRYSPSFQGQVTISADKSISTAYLQWSSLKASDTAMYYCARVYSFGGRHKALFDYWGQGTLVTVSS VL: EIVLTQSPATLSLSPGERATLSCRASQSVSSYLAWYQQKPGQAPRLLIYDASNRATGIPARFSGSGSGTDFTLTISSLEPEDFAVYYCQQRSNWPLTFGQGTKVEIK | 1000 to 10000 |
| GC5B473 (antibody, V domains shown, GC5B164 PTM variant; also called GC5H276) VH: EVQLVQSGAEVKKPGESLKISCKGSGYSFTSYFIGWVRQMPGKGLEWMGIIYPGASDTRYSPSFQGQVTISADKSISTAYLQWSSLKASDTAMYYCARVYSFGGRHKALFDYWGQGTLVTVSS VL: EIVLTQSPATLSLSPGERATLSCRASQSVSSYLAWYQQKPGQAPRLLIYDASNRATGIPARFSGSGSGTDFTLTISSLEPEDFAVYYCQQRSNWPLTFGQGTKVEIK | > 10000 |
| GC5B475 (antibody, V domains shown, GC5B164 PTM variant; also called GC5H274) VH: EVQLVQSGAEVKKPGESLKISCKGSGYSFTSYAIGWVRQMPGKGLEWMGIIYPGASDTRYSPSFQGQVTISADKSISTAYLQWSSLKASDTAMYYCARVYSFGGRHKALFDYWGQGTLVTVSS VL: EIVLTQSPATLSLSPGERATLSCRASQSVSSYLAWYQQKPGQAPRLLIYDASNRATGIPARFSGSGSGTDFTLTISSLEPEDFAVYYCQQRSNWPLTFGQGTKVEIK | 1000 to 10000 |
| GC5B479 (antibody, V domains shown, GC5B164 PTM variant; also called GC5H270) VH: EVQLVQSGAEVKKPGESLKISCKGSGYSFTSYGIGWVRQMPGKGLEWMGIIYPGSSDTRYSPSFQGQVTISADKSISTAYLQWSSLKASDTAMYYCARVYSFGGRHKALFDYWGQGTLVTVSS VL: EIVLTQSPATLSLSPGERATLSCRASQSVSSYLAWYQQKPGQAPRLLIYDASNRATGIPARFSGSGSGTDFTLTISSLEPEDFAVYYCQQRSNWPLTFGQGTKVEIK | 1000 to 10000 |
| GC5B477 (antibody, V domains shown, GC5B164 PTM variant; also called GC5H272) VH: EVQLVQSGAEVKKPGESLKISCKGSGYSFTSYVIGWVRQMPGKGLEWMGIIYPGSSDTRYSPSFQGQVTISADKSISTAYLQWSSLKASDTAMYYCARVYSFGGRHKALFDYWGQGTLVTVSS VL: EIVLTQSPATLSLSPGERATLSCRASQSVSSYLAWYQQKPGQAPRLLIYDASNRATGIPARFSGSGSGTDFTLTISSLEPEDFAVYYCQQRSNWPLTFGQGTKVEIK | 1000 to 10000 |
| GC5B474 (antibody, V domains shown, GC5B164 PTM variant; also called GC5H275) VH: EVQLVQSGAEVKKPGESLKISCKGSGYSFTSYGIGWVRQMPGKGLEWMGIIYPGASDTRYSPSFQGQVTISADKSISTAYLQWSSLKASDTAMYYCARVYSFGGRHKALFDYWGQGTLVTVSS VL: EIVLTQSPATLSLSPGERATLSCRASQSVSSYLAWYQQKPGQAPRLLIYDASNRATGIPARFSGSGSGTDFTLTISSLEPEDFAVYYCQQRSNWPLTFGQGTKVEIK | 1000 to 10000 |
| GC5B481 (antibody, V domains shown, GC5B164 PTM variant; also called GC5H268) VH: EVQLVQSGAEVKKPGESLKISCKGSGYSFTSYYIGWVRQMPGKGLEWMGIIYPGKSDTRYSPSFQGQVTISADKSISTAYLQWSSLKASDTAMYYCARVYSFGGRHKALFDYWGQGTLVTVSS VL: EIVLTQSPATLSLSPGERATLSCRASQSVSSYLAWYQQKPGQAPRLLIYDASNRATGIPARFSGSGSGTDFTLTISSLEPEDFAVYYCQQRSNWPLTFGQGTKVEIK | > 10000 |
| GC5B476 (antibody, V domains shown, GC5B164 PTM variant; also called GC5H273) VH: EVQLVQSGAEVKKPGESLKISCKGSGYSFTSYYIGWVRQMPGKGLEWMGIIYPGSSDTRYSPSFQGQVTISADKSISTAYLQWSSLKASDTAMYYCARVYSFGGRHKALFDYWGQGTLVTVSS VL: EIVLTQSPATLSLSPGERATLSCRASQSVSSYLAWYQQKPGQAPRLLIYDASNRATGIPARFSGSGSGTDFTLTISSLEPEDFAVYYCQQRSNWPLTFGQGTKVEIK | > 10000 |

Other lines, results leading:

| MFI [mfi] | Binder |
| --- | --- |
| > 10000 | GC5B483 (antibody, IgG4, V domains shown, GC5B164 PTM variant D55K, W33F; IgG4 S228P, L234A, L235A; also called GC5H266) VH: EVQLVQSGAEVKKPGESLKISCKGSGYSFTSYFIGWVRQMPGKGLEWMGIIYPGKSDTRYSPSFQGQVTISADKSISTAYLQWSSLKASDTAMYYCARVYSFGGRHKALFDYWGQGTLVTVSS VL: EIVLTQSPATLSLSPGERATLSCRASQSVSSYLAWYQQKPGQAPRLLIYDASNRATGIPARFSGSGSGTDFTLTISSLEPEDFAVYYCQQRSNWPLTFGQGTKVEIK |
| > 10000 | GC5B493 (antibody, V domains shown, GC5B164 PTM variant; also called GC5H256) VH: EVQLVQSGAEVKKPGESLKISCKGSGYSFTSYFIGWVRQMPGKGLEWMGIIYPGYSDTRYSPSFQGQVTISADKSISTAYLQWSSLKASDTAMYYCARVYSFGGRHKALFDYWGQGTLVTVSS VL: EIVLTQSPATLSLSPGERATLSCRASQSVSSYLAWYQQKPGQAPRLLIYDASNRATGIPARFSGSGSGTDFTLTISSLEPEDFAVYYCQQRSNWPLTFGQGTKVEIK |
| > 10000 | GC5B491 (antibody, V domains shown, GC5B164 PTM variant; also called GC5H258) VH: EVQLVQSGAEVKKPGESLKISCKGSGYSFTSYYIGWVRQMPGKGLEWMGIIYPGYSDTRYSPSFQGQVTISADKSISTAYLQWSSLKASDTAMYYCARVYSFGGRHKALFDYWGQGTLVTVSS VL: EIVLTQSPATLSLSPGERATLSCRASQSVSSYLAWYQQKPGQAPRLLIYDASNRATGIPARFSGSGSGTDFTLTISSLEPEDFAVYYCQQRSNWPLTFGQGTKVEIK |
| 1000 to 10000 | GC5B485 (antibody, V domains shown, GC5B164 PTM variant; also called GC5H264) VH: EVQLVQSGAEVKKPGESLKISCKGSGYSFTSYAIGWVRQMPGKGLEWMGIIYPGKSDTRYSPSFQGQVTISADKSISTAYLQWSSLKASDTAMYYCARVYSFGGRHKALFDYWGQGTLVTVSS VL: EIVLTQSPATLSLSPGERATLSCRASQSVSSYLAWYQQKPGQAPRLLIYDASNRATGIPARFSGSGSGTDFTLTISSLEPEDFAVYYCQQRSNWPLTFGQGTKVEIK |
| > 10000 | GC5B492 (antibody, V domains shown, GC5B164 PTM variant; also called GC5H257) VH: EVQLVQSGAEVKKPGESLKISCKGSGYSFTSYVIGWVRQMPGKGLEWMGIIYPGYSDTRYSPSFQGQVTISADKSISTAYLQWSSLKASDTAMYYCARVYSFGGRHKALFDYWGQGTLVTVSS VL: EIVLTQSPATLSLSPGERATLSCRASQSVSSYLAWYQQKPGQAPRLLIYDASNRATGIPARFSGSGSGTDFTLTISSLEPEDFAVYYCQQRSNWPLTFGQGTKVEIK |
| > 10000 | GC5B482 (antibody, V domains shown, GC5B164 PTM variant; also called GC5H267) VH: EVQLVQSGAEVKKPGESLKISCKGSGYSFTSYVIGWVRQMPGKGLEWMGIIYPGKSDTRYSPSFQGQVTISADKSISTAYLQWSSLKASDTAMYYCARVYSFGGRHKALFDYWGQGTLVTVSS VL: EIVLTQSPATLSLSPGERATLSCRASQSVSSYLAWYQQKPGQAPRLLIYDASNRATGIPARFSGSGSGTDFTLTISSLEPEDFAVYYCQQRSNWPLTFGQGTKVEIK |
| 1000 to 10000 | GC5B484 (antibody, V domains shown, GC5B164 PTM variant; also called GC5H265) VH: EVQLVQSGAEVKKPGESLKISCKGSGYSFTSYGIGWVRQMPGKGLEWMGIIYPGKSDTRYSPSFQGQVTISADKSISTAYLQWSSLKASDTAMYYCARVYSFGGRHKALFDYWGQGTLVTVSS VL: EIVLTQSPATLSLSPGERATLSCRASQSVSSYLAWYQQKPGQAPRLLIYDASNRATGIPARFSGSGSGTDFTLTISSLEPEDFAVYYCQQRSNWPLTFGQGTKVEIK |
| 1000 to 10000 | GC5B494 (antibody, V domains shown, GC5B164 PTM variant; also called GC5H255) VH: EVQLVQSGAEVKKPGESLKISCKGSGYSFTSYGIGWVRQMPGKGLEWMGIIYPGYSDTRYSPSFQGQVTISADKSISTAYLQWSSLKASDTAMYYCARVYSFGGRHKALFDYWGQGTLVTVSS VL: EIVLTQSPATLSLSPGERATLSCRASQSVSSYLAWYQQKPGQAPRLLIYDASNRATGIPARFSGSGSGTDFTLTISSLEPEDFAVYYCQQRSNWPLTFGQGTKVEIK |
| > 10000 | GC5B488 (antibody, V domains shown, GC5B164 PTM variant; also called GC5H261) VH: EVQLVQSGAEVKKPGESLKISCKGSGYSFTSYFIGWVRQMPGKGLEWMGIIYPGESDTRYSPSFQGQVTISADKSISTAYLQWSSLKASDTAMYYCARVYSFGGRHKALFDYWGQGTLVTVSS VL: EIVLTQSPATLSLSPGERATLSCRASQSVSSYLAWYQQKPGQAPRLLIYDASNRATGIPARFSGSGSGTDFTLTISSLEPEDFAVYYCQQRSNWPLTFGQGTKVEIK |
| 1000 to 10000 | GC5B490 (antibody, V domains shown, GC5B164 PTM variant; also called GC5H259) VH: EVQLVQSGAEVKKPGESLKISCKGSGYSFTSYAIGWVRQMPGKGLEWMGIIYPGESDTRYSPSFQGQVTISADKSISTAYLQWSSLKASDTAMYYCARVYSFGGRHKALFDYWGQGTLVTVSS VL: EIVLTQSPATLSLSPGERATLSCRASQSVSSYLAWYQQKPGQAPRLLIYDASNRATGIPARFSGSGSGTDFTLTISSLEPEDFAVYYCQQRSNWPLTFGQGTKVEIK |
| 1000 to 10000 | GC5B487 (antibody, V domains shown, GC5B164 PTM variant; also called GC5H262) VH: EVQLVQSGAEVKKPGESLKISCKGSGYSFTSYVIGWVRQMPGKGLEWMGIIYPGESDTRYSPSFQGQVTISADKSISTAYLQWSSLKASDTAMYYCARVYSFGGRHKALFDYWGQGTLVTVSS VL: EIVLTQSPATLSLSPGERATLSCRASQSVSSYLAWYQQKPGQAPRLLIYDASNRATGIPARFSGSGSGTDFTLTISSLEPEDFAVYYCQQRSNWPLTFGQGTKVEIK |
| > 10000 | GC5B486 (antibody, V domains shown, GC5B164 PTM variant; also called GC5H263) VH: EVQLVQSGAEVKKPGESLKISCKGSGYSFTSYYIGWVRQMPGKGLEWMGIIYPGESDTRYSPSFQGQVTISADKSISTAYLQWSSLKASDTAMYYCARVYSFGGRHKALFDYWGQGTLVTVSS VL: EIVLTQSPATLSLSPGERATLSCRASQSVSSYLAWYQQKPGQAPRLLIYDASNRATGIPARFSGSGSGTDFTLTISSLEPEDFAVYYCQQRSNWPLTFGQGTKVEIK |
